Measurements from the supplement of paper PMC10724198.
± gives the standard deviation of the averaged measurements.

What was measured:
Saccharomyces cerevisiae [1] = assay: protein stability index of tFT-peptide fusion (C-terminal peptide) (PSI (0-1 scale)); higher = more stable (slower turnover)
Procedure: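 MPS profiling in S. cerevisiae of the tFT-X12 degron library: putative degron peptides plus stable controls, 12 aa, fused to the C-terminus of a sfGFP-mCherry timer. Cells are FACS-sorted into 8 mCherry/sfGFP bins and deep-sequenced. PSI runs from 0 (unstable) to 1 (stable). Backgrounds are wild type, das1Δ and doa10Δ at 30 °C, and wild type, das1Δ, cdc34-1 and cdc53-1 at 37 °C; 2-3 technical replicates each.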

Saccharomyces cerevisiae [2] = assay: as above; details: genetic background: wild type; temperature: 30 C
[3] = genetic background: cdc34-1, temperature: 37 C
[4] = genetic background: cdc53-1, temperature: 37 C
[5] = genetic background: das1 deletion, temperature: 30 C
[6] = genetic background: das1 deletion, temperature: 37 C
[7] = genetic background: doa10 deletion, temperature: 30 C
[8] = genetic background: wild type, temperature: 30 C
[9] = genetic background: wild type, temperature: 37 C
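Also: PSI is a weighted mean of sequencing reads over stability bins, variants kept only with over 10 reads, mCherry proximal and sfGFP distal, peptide attached via GGGS linker.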

| Sequence | protein stability index (Saccharomyces cerevisiae [1]; [3]) | protein stability index (Saccharomyces cerevisiae [1]; [4]) | protein stability index (Saccharomyces cerevisiae [1]; [5]) | protein stability index (Saccharomyces cerevisiae [1]; [6]) | protein stability index (Saccharomyces cerevisiae [1]; [7]) | protein stability index (Saccharomyces cerevisiae [1]; [8]) | protein stability index (Saccharomyces cerevisiae [1]; [9]) | protein stability index (Saccharomyces cerevisiae [2]) |
| --- | --- | --- | --- | --- | --- | --- | --- | --- |
| DVYIVLFIIKHG | 0.309 ± 0.052 | 0.395 ± 0.022 | 0.261 ± 0.052 | 0.4415 ± 0.0025 | 0.173 ± 0.0021 | 0.175 ± 0.034 | 0.3 ± 0.0092 | 0.241 ± 0.055 |
| EFFTLYDLVRFI | 0.742 ± 0.042 | 0.79 ± 0.05 | 0.669 ± 0.048 | 0.791 ± 0.05 | 0.192 ± 0.00011 | 0.232 ± 0.013 | 0.434 ± 0.04 | 0.38 ± 0.025 |
| ELTYVYRTALIA | 0.152 ± 0.004 | 0.157 ± 0.0057 | 0.204 ± 0.016 | 0.276 ± 0.0057 | 0.0966 ± 0.011 | 0.105 ± 0.014 | 0.0995 ± 0.017 | 0.183 ± 0.045 |
| EMSIISVLRVIS | 0.61 ± 0.013 | 0.641 ± 0.017 | 0.489 ± 0.02 | 0.651 ± 0.021 | 0.181 ± 0.011 | 0.218 ± 0.034 | 0.395 ± 0.015 | 0.369 ± 0.035 |
| ERFILVGMFGSW | 0.702 ± 0.036 | 0.717 ± 0.015 | 0.519 ± 0.017 | 0.708 ± 0.0095 | 0.532 ± 0.026 | 0.529 ± 0.027 | 0.701 ± 0.022 | 0.532 ± 0.048 |
| ERWSPWIVVFTN | 0.464 ± 0.015 | 0.505 ± 0.012 | 0.421 ± 0.034 | 0.612 ± 0.024 | 0.173 ± 0.019 | 0.185 ± 0.022 | 0.278 ± 0.029 | 0.278 ± 0.029 |
| ESVPLLIVLHLV | 0.304 ± 0.058 | 0.62 ± 0.085 | 0.415 ± 0.032 | 0.5979 ± 0.0039 | 0.0857 ± 0.02 | 0.0885 ± 0.0083 | 0.07176 ± 0.00058 | 0.0881 ± 0.034 |
| ETVHVISLIAIG | 0.428 ± 0.021 | 0.5059 ± 0.0027 | 0.33 ± 0.047 | 0.527 ± 0.017 | 0.279 ± 0.014 | 0.33 ± 0.021 | 0.49577 ± 7e-05 | 0.47 ± 0.037 |
| EWFFCLGLFRFH | 0.567 ± 0.022 | 0.6045 ± 0.0057 | 0.472 ± 0.044 | 0.6152 ± 0.0061 | 0.208 ± 0.022 | 0.235 ± 0.025 | 0.433 ± 0.00045 | 0.369 ± 0.045 |
| FASVFCVVTGYV | 0.551 ± 0.037 | 0.611 ± 0.027 | 0.423 ± 0.018 | 0.597 ± 0.0062 | 0.406 ± 0.01 | 0.429 ± 0.013 | 0.58585 ± 7.1e-07 | 0.48 ± 0.072 |
| FCALWLCFRLMV | 0.35 ± 0.024 | 0.403 ± 0.014 | 0.319 ± 0.028 | 0.476 ± 0.03 | 0.14 ± 0.014 | 0.149 ± 0.017 | 0.265 ± 0.028 | 0.174 ± 0.037 |
| FCCLVLDLEVSG | 0.4314 ± 0.0037 | 0.548 ± 0.019 | 0.36 ± 0.032 | 0.5627 ± 0.0037 | 0.331 ± 0.0069 | 0.372 ± 0.016 | 0.541 ± 0.0084 | 0.424 ± 0.0079 |
| FCLFMFVPLLPL | 0.531 ± 0.032 | 0.589 ± 0.013 | 0.455 ± 0.036 | 0.5868 ± 0.0043 | 0.4421 ± 0.0041 | 0.452 ± 0.027 | 0.5642 ± 0.003 | 0.453 ± 0.052 |
| FCMLCVVFLGSL | 0.43 ± 0.067 | 0.532 ± 0.0092 | 0.39 ± 0.029 | 0.6206 ± 0.0047 | 0.358 ± 0.01 | 0.397 ± 0.015 | 0.596 ± 0.026 | 0.505 ± 0.034 |
| FCVCLAVTCCGG | 0.279 ± 0.023 | 0.42 ± 0.013 | 0.277 ± 0.023 | 0.477 ± 0.0066 | 0.215 ± 0.0029 | 0.26 ± 0.024 | 0.42 ± 0.011 | 0.354 ± 0.01 |
| FDWLFFFVNFVV | 0.407 ± 0.063 | 0.511 ± 0.033 | 0.475 ± 0.018 | 0.546 ± 0.029 | 0.174 ± 0.0022 | 0.163 ± 0.019 | 0.24 ± 0.0068 | 0.2459 ± 0.00064 |
| FFAFLRFFIFYW | 0.319 ± 0.058 | 0.266 ± 0.087 | 0.349 ± 0.032 | 0.435 ± 0.0075 | 0.419 ± 0.0083 | 0.328 ± 0.0074 | 0.451 ± 0.026 | 0.448 ± 0.063 |
| FFALFLPLACFC | 0.4689 ± 0.0012 | 0.4432 ± 0.004 | 0.38 ± 0.031 | 0.4899 ± 0.0037 | 0.353 ± 0.023 | 0.386 ± 0.014 | 0.455 ± 0.0076 | 0.429 ± 0.013 |
| FFCCFVFVLGFC | 0.328 ± 0.011 | 0.443 ± 0.01 | 0.312 ± 0.028 | 0.4401 ± 0.0036 | 0.283 ± 0.014 | 0.291 ± 0.019 | 0.393 ± 0.0054 | 0.419 ± 0.021 |
| FFCSILLGIILL | 0.385 ± 0.014 | 0.401 ± 0.0091 | 0.364 ± 0.029 | 0.507 ± 0.016 | 0.47 ± 0.0098 | 0.37 ± 0.033 | 0.451 ± 0.011 | 0.399 ± 0.04 |

| Sequence | protein stability index (Saccharomyces cerevisiae [1]; [3]) | protein stability index (Saccharomyces cerevisiae [1]; [4]) | protein stability index (Saccharomyces cerevisiae [1]; [5]) | protein stability index (Saccharomyces cerevisiae [1]; [6]) | protein stability index (Saccharomyces cerevisiae [1]; [7]) | protein stability index (Saccharomyces cerevisiae [1]; [8]) | protein stability index (Saccharomyces cerevisiae [1]; [9]) | protein stability index (Saccharomyces cerevisiae [2]) |
| --- | --- | --- | --- | --- | --- | --- | --- | --- |
| FFFCFFIFCFSL | 0.327 ± 0.005 | 0.409 ± 0.025 | 0.333 ± 0.026 | 0.463 ± 0.013 | 0.335 ± 0.046 | 0.324 ± 0.015 | 0.396 ± 0.036 | 0.3698 ± 0.0032 |
| FFFFSFFLATFS | 0.227 ± 0.018 | 0.36 ± 0.016 | 0.288 ± 0.055 | 0.418 ± 0.013 | 0.264 ± 0.029 | 0.26 ± 0.036 | 0.39074 ± 0.00019 | 0.305 ± 0.026 |
| FFGVFIFPVSCR | 0.203 ± 0.013 | 0.226 ± 0.019 | 0.204 ± 0.028 | 0.292 ± 0.01 | 0.174 ± 0.0071 | 0.209 ± 0.032 | 0.291 ± 0.028 | 0.291 ± 0.022 |
| FFGVLFRVSLFF | 0.12 ± 0.035 | 0.22 ± 0.011 | 0.191 ± 0.022 | 0.3075 ± 0.0027 | 0.175 ± 0.0079 | 0.173 ± 0.017 | 0.262 ± 0.0057 | 0.266 ± 0.035 |
| FFLLLLRPPLVM | 0.34 ± 0.035 | 0.363 ± 0.0046 | 0.275 ± 0.035 | 0.4464 ± 0.0041 | 0.276 ± 0.0029 | 0.267 ± 0.03 | 0.41225 ± 0.0001 | 0.374 ± 0.051 |
| FFRFCFLLLASS | 0.303 ± 0.011 | 0.335 ± 0.01 | 0.221 ± 0.024 | 0.4 ± 0.01 | 0.197 ± 0.019 | 0.188 ± 0.013 | 0.355 ± 0.011 | 0.25 ± 0.061 |
| FFSRSLGAGVAA | 0.71 ± 0.037 | 0.747 ± 0.044 | 0.602 ± 0.028 | 0.715 ± 0.041 | 0.5962 ± 0.0036 | 0.604 ± 0.013 | 0.724 ± 0.033 | 0.644 ± 0.21 |
| FFVEFFLLCFCS | 0.497 ± 0.023 | 0.498 ± 0.024 | 0.463 ± 0.057 | 0.503 ± 0.036 | 0.476 ± 0.0075 | 0.472 ± 0.019 | 0.515 ± 0.033 | 0.476 ± 0.0053 |
| FFVSFFFFLWLV | 0.204 ± 0.011 | 0.181 ± 0.024 | 0.204 ± 0.011 | 0.261 ± 0.014 | 0.278 ± 0.038 | 0.161 ± 0.018 | 0.189 ± 0.015 | 0.228 ± 0.0027 |
| FGFFDIKLPVVA | 0.515 ± 0.037 | 0.51 ± 0.022 | 0.38 ± 0.024 | 0.5539 ± 0.0013 | 0.345 ± 0.012 | 0.373 ± 0.041 | 0.518 ± 0.017 | 0.486 ± 0.018 |
| FGVECDLCLFCC | 0.617 ± 0.07 | 0.6837 ± 0.0031 | 0.572 ± 0.0088 | 0.692 ± 0.03 | 0.2392 ± 0.0022 | 0.257 ± 0.014 | 0.46 ± 0.015 | 0.376 ± 0.018 |
| FGVVRVSIPVGV | 0.211 ± 0.024 | 0.203 ± 0.02 | 0.227 ± 0.038 | 0.3584 ± 0.0023 | 0.184 ± 0.005 | 0.233 ± 0.024 | 0.316 ± 0.007 | 0.368 ± 0.012 |
| FIFCLSCGVWGG | 0.5052 ± 0.0007 | 0.583 ± 0.027 | 0.478 ± 0.039 | 0.593 ± 0.023 | 0.49 ± 0.026 | 0.466 ± 0.012 | 0.5582 ± 0.0053 | 0.414 ± 0.02 |
| FILLFGFSHWVW | 0.449 ± 0.033 | 0.523 ± 0.023 | 0.375 ± 0.028 | 0.5333 ± 0.0017 | 0.364 ± 0.019 | 0.37 ± 0.03 | 0.476 ± 0.036 | 0.4316 ± 0.0023 |
| FILLTLVFGCAS | 0.188 ± 0.0054 | 0.313 ± 0.025 | 0.228 ± 0.02 | 0.424 ± 0.0066 | 0.196 ± 0.0089 | 0.22 ± 0.035 | 0.375 ± 0.0071 | 0.309 ± 0.025 |
| FLAFLEPRVCCA | 0.23 ± 0.037 | 0.231 ± 0.036 | 0.246 ± 0.019 | 0.354 ± 0.0058 | 0.21 ± 0.0091 | 0.228 ± 0.031 | 0.33 ± 0.029 | 0.343 ± 0.013 |
| FLAFSYIRLLFF | 0.468 ± 0.05 | 0.463 ± 0.019 | 0.454 ± 0.026 | 0.6128 ± 0.0054 | 0.135 ± 0.017 | 0.122 ± 0.023 | 0.178 ± 0.031 | 0.237 ± 0.012 |
| FLCWLSFIPLLS | 0.203 ± 0.0093 | 0.164 ± 0.007 | 0.293 ± 0.034 | 0.366 ± 0.0095 | 0.418 ± 0.019 | 0.256 ± 0.017 | 0.32 ± 0.015 | 0.38 ± 0.02 |
| FLFFCGWVSLFG | 0.408 ± 0.024 | 0.4636 ± 0.0024 | 0.394 ± 0.033 | 0.4966 ± 0.0014 | 0.333 ± 0.0056 | 0.364 ± 0.023 | 0.479 ± 0.025 | 0.424 ± 0.024 |
